Data on 1 molecule can be found in patent US20240392014A1 (OREGON HEALTH AND SCIENCE UNIVERSITY, published 2024).

The target in this assay is T1, CCR5 on CD4+ T cells of a Mauritian cynomolgus macaque (Mauritian cynomolgus macaque, UniProt P61814 1-352).
T1 construct: also called cynomolgus macaque CCR5
The experiment in a line: in vivo CCR5 receptor occupancy on CD4+ T cells after AAV9-huLeron, flow cytometry; also near full CCR5 RO in mesenteric lymph nodes and spleen. The method, then: The ability of the leronlimab-delivering AAV to transduce myocytes, trigger them to produce leronlimab, and subsequently contain CCR5-tropic retroviral replication was tested. An AAV9 encoding human Fc leronlimab (AAV9-huLeron) was administered at 2×10¹² AAV genomes/kg of to a Mauritian cynomolgus macaque (MCM) chronically infected with the CCR5-tropic virus SHIVSF162P3. […] Leronlimab was detectable in plasma at week 3 after administration of leronlimab-AAV following achievement of full CCR5 receptor occupancy in peripheral blood (FIGS. 2A and 2C). Leronlimab persisted in the plasma for one year post leronlimab-AAV administration (FIG. 2A) without appearance of any ADA (FIG. 2B). Following leronlimab-AAV administration and full CCR5 RO on peripheral blood CD4+ T cells, plasma viral loads fell to undetectable levels. Plasma viremia “blips” that coincided with transient dips in CCR5 RO and plasma leronlimab levels were observed. Finally, CD4+ T cells from mesenteric lymph nodes (LN) and spleen maintained near full CCR5 RO (FIG. 2D). Cell-associated SHIV DNA (FIG. 2E) and RNA (FIG. 2F) decreased in blood and spleen, with minimal decreases in mesenteric LN.
For orientation: In flow cytometry, cells or beads pass a laser one at a time.

B1: human Fc leronlimab (expressed in vivo from AAV9-huLeron) (antibody, V domains shown)
VH: EVQLVESGGGLVKPGGSLRLSCAASGYTFSNYWIGWVRQAPGKGLEWIGDIYPGGNYIRNNEKFKDKTTLSADTSKNTAYLQMNSLKTEDTAVYYCGSSFGSNYVFAWFTYWGQGTLVTVSS
VL: DIVMTQSPLSLPVTPGEPASISCRSSQRLLSSYGHTYLHWYLQKPGQSPQLLIYEVSNRFSGVPDRFSGSGSGTDFTLKISRVEAEDVGVYYCSQSTHVPLTFGQGTKVEIK
notes: also called PRO 140; PRO140
Regarding B1, the binding result is reported as “binds”.
